Measured values as given in the Human Domainome abundance scans (Beltran et al. 2025).
± gives the uncertainty stated by the source.

B1: Ankyrin-2, residues 3571 to 3650; numbered along this chain, Q01484 (parent)
chain: ERLAYIADHLGFSWTELARELDFTEEQIHQIRIENPNSLQDQSHALLKYWLERDGKHATDTNLVECLTKINRMDIVHLME
B2: Transcription elongation regulator 1-like protein, residues 448 to 504; numbered along this chain, Q5VWI1 (parent)
chain: LPLEERVTHFRDMLLERGVSAFSTWEKELHKIVFDPRYLLLNSEERKQIFEQFVKTR

Variants of: B1
Test: abundance fitness (aPCA) (normalised: wild type 0, dead -1); higher = more abundant; growth selection in yeast, the domain comes from the species named
Conditions: Homo sapiens
For ERLAYIADHLGFSWTELARELDFTEEQIPQIRIENPNSLQDQSHALLKYWLERDGKHATDTNLVECLTKINRMDIVHLME [H29P], the abundance fitness was -0.961 ± 0.16.
With ERLAYIADHLGFSWTELARELDFTEEQIHQIRIENPNSLQDQSHALLMYWLERDGKHATDTNLVECLTKINRMDIVHLME [K48M] the abundance fitness was -0.2 ± 0.17.
Variant ERLAYIADHLGFSWTELARELDFTEEQIHQIRIENPNSLQDQSHALLKYWLERDGKHATDTNLVECLTLINRMDIVHLME [K69L] has an abundance fitness of -0.059 ± 0.042.
Variant ERLAYIADHLGFSWTELARELDFTEEQIHQIRIENPNSLQDQSHALLKYWLERDGKHATDTNLVECLTDINRMDIVHLME [K69D] has an abundance fitness of -0.094 ± 0.1.
Variant ERLAYIADHLGFSWTELARELDFTEEQIHVIRIENPNSLQDQSHALLKYWLERDGKHATDTNLVECLTKINRMDIVHLME [Q30V] has an abundance fitness of -0.073 ± 0.082.
With ERLAYIADHLGFSWTELARELDFTEEQIHQIRIENPNSLQDQSHALLKYWLERDGKHATDTNMVECLTKINRMDIVHLME [L63M] the abundance fitness was 0.022 ± 0.17.
For ERLYYIADHLGFSWTELARELDFTEEQIHQIRIENPNSLQDQSHALLKYWLERDGKHATDTNLVECLTKINRMDIVHLME [A4Y], the abundance fitness was -0.075 ± 0.1.
In the case of ERLNYIADHLGFSWTELARELDFTEEQIHQIRIENPNSLQDQSHALLKYWLERDGKHATDTNLVECLTKINRMDIVHLME [A4N], the abundance fitness is reported as -0.024 ± 0.11.
ERLAYIADHLGFSWTELARELDFTEEQIHQIRIENPNSLQPQSHALLKYWLERDGKHATDTNLVECLTKINRMDIVHLME [D41P] showed an abundance fitness of -0.243 ± 0.071.
For ERLAYIADHLGFLWTELARELDFTEEQIHQIRIENPNSLQDQSHALLKYWLERDGKHATDTNLVECLTKINRMDIVHLME [S13L], the abundance fitness was -0.306 ± 0.11.
With ERLAYIADHLGFSWTELARELDFTEEQIHQIRIENPNSLQDQSHALLKYWLERDGKHATDTNLVECLTKINRMFIVHLME [D74F] the abundance fitness was -0.971 ± 0.28.
Work on ERLAYIADHLGFSWTELARELDFTEEQIHQIRIENPKSLQDQSHALLKYWLERDGKHATDTNLVECLTKINRMDIVHLME [N37K] yielded an abundance fitness of -0.074 ± 0.13.
Work on ERLAYIADHLGFSWTELARELDFTECQIHQIRIENPNSLQDQSHALLKYWLERDGKHATDTNLVECLTKINRMDIVHLME [E26C] yielded an abundance fitness of -0.209 ± 0.092.
Variant ERLAYIADHLGFSWTERARELDFTEEQIHQIRIENPNSLQDQSHALLKYWLERDGKHATDTNLVECLTKINRMDIVHLME [L17R] has an abundance fitness of -1.23 ± 0.12.
With ERLAYIADHLGFSWTELARELDFTEEQIHQIRIENPNSLQDQSHALLKYWWERDGKHATDTNLVECLTKINRMDIVHLME [L51W] the abundance fitness was -0.106 ± 0.17.
ERLAYIADHLGFSWTELARELDFTEEQIHQIRIENPNSLQDQSHALLKYWGERDGKHATDTNLVECLTKINRMDIVHLME [L51G] showed an abundance fitness of -0.154 ± 0.13.
Variant ERLAYIADHLGFSWTELARELDFTEEQIHQIRIENPNSLQDQSHALLKYWCERDGKHATDTNLVECLTKINRMDIVHLME [L51C] has an abundance fitness of -0.236 ± 0.16.
ERLAYIADHLGFSWTELARELDFTEEQIHQIRIENPNSLQDQSHALLKYWLERDGKHATDTNLVECETKINRMDIVHLME [L67E] showed an abundance fitness of -0.643 ± 0.22.
ERLAYIADHLGFSWTELARELDFTEEQIHQIRIENPNSLQDQPHALLKYWLERDGKHATDTNLVECLTKINRMDIVHLME [S43P] showed an abundance fitness of -0.32 ± 0.18.
Work on ERLAYIADHLGFSWTELARELDFTEEQIHQIRIENPNSLQDQLHALLKYWLERDGKHATDTNLVECLTKINRMDIVHLME [S43L] yielded an abundance fitness of -0.216 ± 0.1.
Variant ERLAYIADHLGFSWTELARELDFTEERIHQIRIENPNSLQDQSHALLKYWLERDGKHATDTNLVECLTKINRMDIVHLME [Q27R] has an abundance fitness of -0.09 ± 0.071.
ERLAYIADHLGFSWTELARELDFTEEQIHQIRIENPNSLQDASHALLKYWLERDGKHATDTNLVECLTKINRMDIVHLME [Q42A] gave an abundance fitness of -0.068 ± 0.16.
Work on ERLAYIADHLGFSWTELARELDFTEEQIHQIRIENPNSLQDQSHALLKYWLERDGKHATDTNLVECLEKINRMDIVHLME [T68E] yielded an abundance fitness of 0.047 ± 0.11.
Variant ERLAYIADHLGFSWTELARELDFTEEQIHQIRIENPNSLQDQSHALLKYWLERDGKHATDTNLVECLNKINRMDIVHLME [T68N] has an abundance fitness of -0.231 ± 0.15.
With ERLAYIADHLGFSWTELARELDFTEEQIHQIRIENPNSLQDQSHALLKYWLERDGKHATDMNLVECLTKINRMDIVHLME [T61M] the abundance fitness was -0.427 ± 0.26.
Variant ERLAYIADHLGFSWTELARELDFTEEQIHQIRIENPNSLQDQSHALLKYWLERDGKHATDTNLVEALTKINRMDIVHLME [C66A] has an abundance fitness of -0.016 ± 0.059.
Variant ERLAYIADHLGFSWTELARELDFTEEQIHQIRIENPNSLQDQSHALSKYWLERDGKHATDTNLVECLTKINRMDIVHLME [L47S] has an abundance fitness of -0.462 ± 0.058.
For ERLAYRADHLGFSWTELARELDFTEEQIHQIRIENPNSLQDQSHALLKYWLERDGKHATDTNLVECLTKINRMDIVHLME [I6R], the abundance fitness was -0.717 ± 0.26.
With ERLAYIADHLGFSWTELARELDFTEEQIHQIRIENPNSLQDQSHALLKYWLERDGKHATDTKLVECLTKINRMDIVHLME [N62K] the abundance fitness was -0.374 ± 0.46.
Work on ERLAYIADHLGFSWTELARELDFTEEQIHQIRIENPNSLQDQSHGLLKYWLERDGKHATDTNLVECLTKINRMDIVHLME [A45G] yielded an abundance fitness of -0.231 ± 0.21.
ERLAYISDHLGFSWTELARELDFTEEQIHQIRIENPNSLQDQSHALLKYWLERDGKHATDTNLVECLTKINRMDIVHLME [A7S] showed an abundance fitness of 0.052 ± 0.33.
With ERLAYITDHLGFSWTELARELDFTEEQIHQIRIENPNSLQDQSHALLKYWLERDGKHATDTNLVECLTKINRMDIVHLME [A7T] the abundance fitness was 0.029 ± 0.15.
ERLAYIADHLGFSWTELARELDFDEEQIHQIRIENPNSLQDQSHALLKYWLERDGKHATDTNLVECLTKINRMDIVHLME [T24D] gave an abundance fitness of 0.064 ± 0.17.
For ERLAYIADHLGFSWTELARELDFTEEQIHQICIENPNSLQDQSHALLKYWLERDGKHATDTNLVECLTKINRMDIVHLME [R32C], the abundance fitness was -0.074 ± 0.16.
ERLAYIADHLGFSWTELARELQFTEEQIHQIRIENPNSLQDQSHALLKYWLERDGKHATDTNLVECLTKINRMDIVHLME [D22Q] showed an abundance fitness of 0.017 ± 0.095.
ERLAYIADHLGFSWTELARELFFTEEQIHQIRIENPNSLQDQSHALLKYWLERDGKHATDTNLVECLTKINRMDIVHLME [D22F] gave an abundance fitness of -0.039 ± 0.097.

Variants of: B2
Test: as above
Conditions: Homo sapiens
In the case of LPIEERVTHFRDMLLERGVSAFSTWEKELHKIVFDPRYLLLNSEERKQIFEQFVKTR [L3I], the abundance fitness is reported as 0.427 ± 0.31.
Variant LPREERVTHFRDMLLERGVSAFSTWEKELHKIVFDPRYLLLNSEERKQIFEQFVKTR [L3R] has an abundance fitness of 0.304 ± 0.07.
LPDEERVTHFRDMLLERGVSAFSTWEKELHKIVFDPRYLLLNSEERKQIFEQFVKTR [L3D] showed an abundance fitness of -0.135 ± 0.23.
Variant LPCEERVTHFRDMLLERGVSAFSTWEKELHKIVFDPRYLLLNSEERKQIFEQFVKTR [L3C] has an abundance fitness of -0.857 ± 0.23.
